From US20250188479A1 come the findings set out here.

Substrate in the data set: CC(C)=CCC/C(C)=C/COP(=O)(O)OP(=O)(O)O
Description: purified protein, by the assay type. To be noted: other: purified wildtype RhNUDX1, this study; pH 8.0.

The Km is the concentration of substrate that gives half-maximal velocity. A word on the kcat: it is the maximal rate divided by the concentration of active sites. One may read the kcat/Km as the turnover number divided by the Michaelis constant.

B1: Rosa hybrida (Rosa hybrid cultivar) RhNUDX1, GPP phosphohydrolase, wildtype, UniProt JQ820249, SEQ ID NO: 14 (Rosa hybrid cultivar) (protein)
chain: MGNETVVVAETAGSIKVAVVVCLLRGQNVLLGRRRSSLGDSTFSLPSGHLEFGESFEECAARELKEETDLDIGKIELLTVTNNLFLDEAKPSQYVAVFMRAVLADPRQEPQNIEPEFCDGWGWYEWDNLPKPLFWPLDNVVQDGFNPFPT
On to B1, for which the Km was 46.4 ± 4.4 µM, the kcat worked out at 0.36 s⁻¹ and the kcat/Km is 7747 ± 1736 M⁻¹ s⁻¹.
